# Reference: patent US20260231954A1, “PESTICIDAL ENZYMES FOR USE ON NEMATODES, INSECTS, AND MOLLUSKS” (priority 2023, published 2026)
# B1: Collagenase B (SEQ ID NO: 208): Bacillus pumulis Collagenase B (ColB) (protein, listed as Bacillus pumulis, listed as Bacillus pumilus)
# chain: IVNGKRVITKKPELLAPAGNLEKLKIAVHYGADAVFIGGQEYGLRSNADNFTIEEIAEGVEFAKKYGAKIYVTTNIFAHNENMDGLEDYLKALGDANVAGIIVADPLIIETCRRVAPNVEVHLSTQQSLSNWKAVQFWKEEGLDRVVLARETSALEIREMKEKVDIEIESFIHGAMCIAYSGRCVLSNHMTARDSNRGGCCQSCRWDYDLYQTDGANAVALYGEEDAPFAMSPKDLKLIESIPKMIEMGIDSLKIEGRMKSIHYVATVVSVYRKVIDAYCADPENFVIQKEWLEELDKCANRDTATAFFEGTPGYEEQMFGEHAKKTTYDFVGLVLNYDEDTQMVTLQQRNFFKKGDEVEFFGPEIENFTHTIETIWDEDGNELDAARHPLQIVKFKLDKKIYPSNMMRKGK
# modifications: Collagenase B (ColB)
# B2: Bacillus thuringiensis Lipase 2 (SEQ ID NO: 251): Bacillus thuringiensis Lipase 2 (protein, listed as Bacillus thuringiensis)
# chain: EVVKELGKGFPDTEVFTPGEWFLGQKPANYDENKPPILFVQGRNGNADSWYGKTVYHDINDMYDYALKAGYQTVFIQLYDAAGKGSASQWDNGKLLAQKLEEIYNYFGKKVNIVAHSKGGIDTQAALVEYGANRFVGNVITLATPHHGSNLADLSYSWWAGWLASILGQKDDGTYSLQIGEMAKFRSIIDNNPAAKLNRYYTATGTSWGPTFSALSMGGLYLSSYGSNDGLVNEWSAKLSYGTHLFTDSRFDHDNIRKGSAVFARIEPYLRTTNVGLPALVASSTSSNEDLEQLNTTSNQNILGGELPQNQWIEQSISVDKKAEGIVSVLTASSDVEVQMVSPKGKIYANKDSAITTGEGESFFNRATIRTFKFDKLEVGEWKIKMMAKQSKDAYLVVSDYKDDAPFVLRMPTKVKINKPEYKLKKSPVAPEMKGDLSITVRVVNKEGKLVSEFNELQNVNTNTFTGALKDIKQPGVYNVTMDIKGMNKEGKPYNRTIVKSVYVEK
# Tested on: soybean cyst nematode (SCN, Heterodera glycines)
# Assay: Soybean cyst nematode reproduction on soybean after seed treatment, controlled environment (cysts per gram of root tissue or per plant)
# Type: in vivo
# Conditions: for % Comparison to Control (figure in parentheses): change vs base control; for Average cysts per g of root tissue: free enzyme seed treatment, soybean 2830E3
Molecule,% Comparison to Control (figure in parentheses) (Table 22) [%],Average cysts per g of root tissue (Table 22),% Comparison to Control (figure in parentheses) (Table 20) [%],Average cysts per g of root tissue (Table 20)
B1,−85,70.9 cysts per g of root tissue,–,–
B2,–,–,−43,264.3 cysts per g of root tissue
